Results from patent US20240382605A1, “CONJUGATED OLIGONUCLEOTIDES AND USES THEREOF” (Ionis Pharmaceuticals, Inc., priority 2021, published 2024).

Legend:
[1] = Example 8: hematology assays / blood cell counts in hTFR^KI/+ knock in mice; assay type: in vivo, mouse; conditions: for Mean corpuscular volume (MCV) / hematocrit (HCT) / hemoglobin (HGB) / mean corpuscular hemoglobin (MCH) / mean corpuscular hemoglobin concentration (MCHC) / red blood cell (RBC) count / white blood cell (WBC) count: blood day 15; for BAS (basophils) / LYM (lymphocytes) / MON (monocytes) / NEU (neutrophils) / PLT (platelets) / RETI (reticulocytes): day 15;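 on all read-outs here: mice given conjugated modified oligonucleotide, three doses total, blood cell counts measured at sacrifice, PBS-treated group of 4 mice serves as negative control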
Excerpt: (§1) Each mouse received an intravenous (i.v.) administration or subcutaneous (s.c.) administration of conjugated modified oligonucleotide for a total of 3 doses (on Days 1, 5, and 9) at doses indicated in the table below. […] A group of 4 mice received PBS as a negative control.
Blood obtained from mice on the day the mice were sacrificed (day 15) were sent to IDEXX BioResearch for measurement of blood cell counts. Counts taken include red blood cell (RBC) count, white blood cell (WBC) count, hemoglobin (HGB), hematocrit (HCT), Mean corpuscular volume (MCV), mean corpuscular hemoglobin (MCH), and mean corpuscularhemoglobin concentration (MCHC). Individual white blood cell counts, such as that of monocytes (MON), neutrophils (NEU), lymphocytes (LYM), eosinophils (EOS), basophils (BAS), reticulocytes, and platelets were evaluated.

[2] = system: mouse DMPK RNA; assay: Example 8: mouse DMPK RNA and ED50 in tissues of hTFR^KI/+ knock in mice, multiple dose (RTPCR, day 15); assay type: in vivo;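 further: conjugated oligonucleotide given as three doses to hTFR^KI/+ knock-in mice, tissues taken at day 15 and mouse DMPK RNA quantified by real-time RT-PCR against PBS-treated controls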
Description: The activity and tolerability of modified oligonucleotides conjugated to CD71 bicycle ligands were tested in hTFR^KI/+ knock in mice (described herein above).
as §1
The mice were sacrificed six days post final administration (on day 15), and RNA was extracted from various muscle tissues (including quadriceps (Quad), tibialis anterior (TA), diaphragm, triceps, heart, gastrocnemius (gastroc)), aorta, sciatic nerve, and liver tissue for quantitative real time RTPCR analysis to measure amount of mouse DMPK RNA using mouse primer probe set RTS3181 (described herein above).

[3] = Example 8: plasma chemistry markers in hTFR^KI/+ knock in mice; assay type: in vivo, mouse; conditions: plasma day 15;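 further: plasma levels read on an automated clinical chemistry analyzer after three doses of conjugated modified oligonucleotide, with a PBS-treated group as negative control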
Excerpt: as §1
To evaluate the effect of modified oligonucleotides on liver and kidney function, plasma levels of albumin (ALB), alanine aminotransferase (ALT), aspartate aminotransferase (AST), blood urea nitrogen (BUN), total bilirubin (TBIL), total Protein (PROT), Creatine (CREAT), and Creatine Kinase (CK) were measured on the day the mice were sacrificed (day 15) using an automated clinical chemistry analyzer (Hitachi Olympus AU400c, Melville, NY).

[4] = Example 8: body and organ weights in hTFR^KI/+ knock in mice; assay type: in vivo, mouse; conditions: for Organ weight Kidney / Organ weight Liver / Organ weight Spleen: day 15
Description: as §1
Liver, kidney, and spleen weights were measured on the day the mice were sacrificed (day 15), and the average organ weights for each group are presented in the tables below.

[5] = reduction of mouse DMPK RNA, i.v., 3 doses on Days 1, 5, 9

Which “Mean corpuscular volume (MCV)” value ([1]; i.v. 1 mg/kg on Days 1, 5, 9) does the source give for “1590463 BCY17901 (CPXDAYLGCXSYCEPWX; not fully specified; non-natural residues; cyclised or stapled)” here?
Its value is 40 fL.

And the “hematocrit (HCT)” value ([1]; i.v. 1 mg/kg on Days 1, 5, 9)?
Its value is 48%.

And the “hemoglobin (HGB)” value ([1]; i.v. 1 mg/kg on Days 1, 5, 9)?
Its value is 15 g/dL.

And the “mean corpuscular hemoglobin (MCH)” value ([1]; i.v. 1 mg/kg on Days 1, 5, 9)?
Its value is 13 pg.

What about the “mean corpuscular hemoglobin concentration (MCHC)” value ([1]; i.v. 1 mg/kg on Days 1, 5, 9) of the same substance?
The value was 31 g/dL.

And the “red blood cell (RBC) count” value ([1]; i.v. 1 mg/kg on Days 1, 5, 9)?
The value was 12 10^12/L.

What about the “white blood cell (WBC) count” value ([1]; i.v. 1 mg/kg on Days 1, 5, 9) of the same substance?
Its value is 7 10^3/μL.

What about the “Mean corpuscular volume (MCV)” value ([1]; i.v. 10 mg/kg on Days 1, 5, 9) of the same substance?
Its value is 41 fL.

What about the “hematocrit (HCT)” value ([1]; i.v. 10 mg/kg on Days 1, 5, 9) of the same substance?
The value was 47%.

What about the “hemoglobin (HGB)” value ([1]; i.v. 10 mg/kg on Days 1, 5, 9) of the same substance?
The value was 15 g/dL.

And the “mean corpuscular hemoglobin (MCH)” value ([1]; i.v. 10 mg/kg on Days 1, 5, 9)?
Its value is 13 pg.

What about the “mean corpuscular hemoglobin concentration (MCHC)” value ([1]; i.v. 10 mg/kg on Days 1, 5, 9) of the same substance?
The value was 31 g/dL.

What about the “red blood cell (RBC) count” value ([1]; i.v. 10 mg/kg on Days 1, 5, 9) of the same substance?
The value was 11 10^12/L.

What about the “white blood cell (WBC) count” value ([1]; i.v. 10 mg/kg on Days 1, 5, 9) of the same substance?
Its value is 9 10^3/μL.

And the “Diaphragm mouse DMPK RNA (% control)” value ([2]; i.v. 1 mg/kg on Days 1, 5, 9)?
The value was 57 % control.

And the “Gastrocnemius mouse DMPK RNA (% control)” value ([2]; i.v. 1 mg/kg on Days 1, 5, 9)?
Its value is 74 % control.

What about the “Heart mouse DMPK RNA (% control)” value ([2]; i.v. 1 mg/kg on Days 1, 5, 9) of the same substance?
Its value is 75 % control.

And the “Quadriceps mouse DMPK RNA (% control)” value ([2]; i.v. 1 mg/kg on Days 1, 5, 9)?
The value was 79 % control.

What about the “Tibialis Anterior mouse DMPK RNA (% control)” value ([2]; i.v. 1 mg/kg on Days 1, 5, 9) of the same substance?
The value was 71 % control.

What about the “Diaphragm mouse DMPK RNA (% control)” value ([2]; i.v. 10 mg/kg on Days 1, 5, 9) of the same substance?
The value was 14 % control.

And the “Gastrocnemius mouse DMPK RNA (% control)” value ([2]; i.v. 10 mg/kg on Days 1, 5, 9)?
Its value is 15 % control.

And the “Heart mouse DMPK RNA (% control)” value ([2]; i.v. 10 mg/kg on Days 1, 5, 9)?
Its value is 44 % control.

And the “Quadriceps mouse DMPK RNA (% control)” value ([2]; i.v. 10 mg/kg on Days 1, 5, 9)?
The value was 14 % control.

What about the “Tibialis Anterior mouse DMPK RNA (% control)” value ([2]; i.v. 10 mg/kg on Days 1, 5, 9) of the same substance?
Its value is 14 % control.

What about the “Creatine (CREAT)” value ([3]; i.v. 1 mg/kg on Days 1, 5, 9) of the same substance?
The value was 0.15 mg/dL.

And the “alanine aminotransferase (ALT)” value ([3]; i.v. 1 mg/kg on Days 1, 5, 9)?
The value was 65 U/L.

And the “albumin (ALB)” value ([3]; i.v. 1 mg/kg on Days 1, 5, 9)?
The value was 2.76 g/dL.

And the “aspartate aminotransferase (AST)” value ([3]; i.v. 1 mg/kg on Days 1, 5, 9)?
Its value is 107 U/L.

And the “blood urea nitrogen (BUN)” value ([3]; i.v. 1 mg/kg on Days 1, 5, 9)?
The value was 23 mg/dL.

And the “total Protein (PROT)” value ([3]; i.v. 1 mg/kg on Days 1, 5, 9)?
Its value is 4.73 g/dL.

And the “total bilirubin (TBIL)” value ([3]; i.v. 1 mg/kg on Days 1, 5, 9)?
The value was 0.13 mg/dL.

What about the “Creatine (CREAT)” value ([3]; i.v. 10 mg/kg on Days 1, 5, 9) of the same substance?
The value was 0.15 mg/dL.

And the “alanine aminotransferase (ALT)” value ([3]; i.v. 10 mg/kg on Days 1, 5, 9)?
The value was 35 U/L.

What about the “albumin (ALB)” value ([3]; i.v. 10 mg/kg on Days 1, 5, 9) of the same substance?
The value was 2.63 g/dL.

And the “aspartate aminotransferase (AST)” value ([3]; i.v. 10 mg/kg on Days 1, 5, 9)?
The value was 98 U/L.

And the “blood urea nitrogen (BUN)” value ([3]; i.v. 10 mg/kg on Days 1, 5, 9)?
Its value is 23 mg/dL.

What about the “total Protein (PROT)” value ([3]; i.v. 10 mg/kg on Days 1, 5, 9) of the same substance?
Its value is 4.53 g/dL.

What about the “total bilirubin (TBIL)” value ([3]; i.v. 10 mg/kg on Days 1, 5, 9) of the same substance?
The value was 0.14 mg/dL.

For “1590463-BCY17896: modified oligonucleotide 1590463 conjugated to CD71 bicycle ligand BCY17896 through a BCN linker (CPXDAYLGCXSYCX; not fully specified; non-natural residues; cyclised or stapled)”, which “BAS (basophils)” value ([1]; 1 mg/kg i.v.) is on record?
The value was 0.07%.

And the “LYM (lymphocytes)” value ([1]; 1 mg/kg i.v.)?
The value was 85%.

And the “MON (monocytes)” value ([1]; 1 mg/kg i.v.)?
The value was 5%.

What about the “NEU (neutrophils)” value ([1]; 1 mg/kg i.v.) of the same substance?
Its value is 8%.

And the “PLT (platelets)” value ([1]; 1 mg/kg i.v.)?
The value was 1170 10^9/L.

What about the “RETI (reticulocytes)” value ([1]; 1 mg/kg i.v.) of the same substance?
Its value is 439 10^3/μL.

What about the “BAS (basophils)” value ([1]; 10 mg/kg i.v.) of the same substance?
Its value is 0.07%.

And the “LYM (lymphocytes)” value ([1]; 10 mg/kg i.v.)?
The value was 84%.

And the “MON (monocytes)” value ([1]; 10 mg/kg i.v.)?
Its value is 6%.

What about the “NEU (neutrophils)” value ([1]; 10 mg/kg i.v.) of the same substance?
Its value is 8%.

What about the “PLT (platelets)” value ([1]; 10 mg/kg i.v.) of the same substance?
The value was 1087 10^9/L.

What about the “RETI (reticulocytes)” value ([1]; 10 mg/kg i.v.) of the same substance?
Its value is 389 10^3/μL.

What about the “Diaphragm ED50” value [2, 5] of the same substance?
Its value is 1.4 mg/kg.

And the “Gastrocnemius ED50” value [2, 5]?
Its value is 2.9 mg/kg.

And the “Quadriceps ED50” value [2, 5]?
Its value is 2.6 mg/kg.

What about the “Tibialis Anterior ED50” value [2, 5] of the same substance?
The value was 3.3 mg/kg.

What about the “Body weight Day 1” value ([4]; 1 mg/kg i.v.) of the same substance?
Its value is 27 g.

And the “Body weight Day 15” value ([4]; 1 mg/kg i.v.)?
The value was 28 g.

And the “Organ weight Kidney” value ([4]; 1 mg/kg i.v.)?
Its value is 0.35 g.

And the “Organ weight Liver” value ([4]; 1 mg/kg i.v.)?
The value was 1.49 g.

And the “Organ weight Spleen” value ([4]; 1 mg/kg i.v.)?
Its value is 0.07 g.

What about the “Body weight Day 1” value ([4]; 10 mg/kg i.v.) of the same substance?
The value was 24 g.

And the “Body weight Day 15” value ([4]; 10 mg/kg i.v.)?
The value was 25 g.

And the “Organ weight Kidney” value ([4]; 10 mg/kg i.v.)?
Its value is 0.33 g.

What about the “Organ weight Liver” value ([4]; 10 mg/kg i.v.) of the same substance?
Its value is 1.39 g.

What about the “Organ weight Spleen” value ([4]; 10 mg/kg i.v.) of the same substance?
The value was 0.07 g.
